Here are results for ten variants from FireProtDB (doi:10.1021/bi049320b).

B1: Barstar, P11540 (parent)
chain: MKKAVINGEQIRSISDLHQTLKKELALPEYYGENLDALWDCLTGWVEYPLVLEWRQFEQSKQLTENGAESVLQVFREAKAEGCDITIILS

Variants of B1 are the subject of the data set. Particulars: Bacillus amyloliquefaciens, pH 8, 25 °C, Urea, Fluorescence, Tris-HCl 30 mM, structure 1BTA, whole UniProt chain shown.

MKKAVINGEQIRSISDLHQTLKKELALPEYYGENLDALWDCLTGWVEYPLVLEWRQFEQSKQLTENGAESVLQVFQEAKAEGCDITIILS [R76Q]: for the setting “KCl 0.5M”, the “ddG of mutation (higher = less stable)” value stood at 0.4 kcal/mol, the denaturant m value is 1.15 kcal/mol/M and the unfolding free energy was found to be 5.4 kcal/mol. Further, for the setting “KCl 1 M”, the “ddG of mutation (higher = less stable)” value was found to be 0.4 kcal/mol, the denaturant m value is 1.17 kcal/mol/M and the unfolding free energy stood at 6.5 kcal/mol.

MKKAVINGEQIRSISDLHQTLKKELALPEYYGENLDALWDCLTGWVEYPLVLEWRQFEQSKQLTENGAESVLQVFLEAKAEGCDITIILS [R76L]: the “ddG of mutation (higher = less stable)” value is -0.7 kcal/mol, the denaturant m value was found to be 1.13 kcal/mol/M and the unfolding free energy stood at 5.5 kcal/mol. Also, under “KCl 0.5 M”, the “ddG of mutation (higher = less stable)” value is -0.7 kcal/mol, the denaturant m value is 1.13 kcal/mol/M and the unfolding free energy came out at 6.5 kcal/mol. Where the note is “KCl 1.0 M”, the “ddG of mutation (higher = less stable)” value was -0.7 kcal/mol, the denaturant m value is 1.15 kcal/mol/M and the unfolding free energy came to 7.6 kcal/mol.

Consider MKKAVINGEQIRSISDLHQTLKKELALPEYYGENLDALWDCLTGWVEYPLVLEWRQFKQSKQLTENGAESVLQVFREAKAEGCDITIILS [E58K], for which the “ddG of mutation (higher = less stable)” value was determined as 0.4 kcal/mol, the denaturant m value amounted to 1.25 kcal/mol/M and the unfolding free energy is 4.4 kcal/mol. Besides, for the setting “KCl 0.5 M”, the “ddG of mutation (higher = less stable)” value was 0.9 kcal/mol, the denaturant m value was 1.14 kcal/mol/M and the unfolding free energy amounted to 4.9 kcal/mol. Also, for the setting “KCl 1.0 M”, the “ddG of mutation (higher = less stable)” value amounted to 0.9 kcal/mol, the denaturant m value was found to be 1.16 kcal/mol/M and the unfolding free energy is 6 kcal/mol.

As for MKKAVINGEQIRSISDLHQTLKKELALPEYYGENLDALWDCLTGWVEYPLVLEWRQFEQSEQLTENGAESVLQVFREAKAEGCDITIILS [K61E], the “ddG of mutation (higher = less stable)” value stood at 0.6 kcal/mol, the denaturant m value is 1.44 kcal/mol/M and the unfolding free energy worked out at 4.2 kcal/mol. Moreover, where the note is “KCl 0.5 M”, the “ddG of mutation (higher = less stable)” value was 1.3 kcal/mol, the denaturant m value was found to be 1.19 kcal/mol/M and the unfolding free energy is 4.5 kcal/mol. Moreover, where the note is “KCl 1.0 M”, the “ddG of mutation (higher = less stable)” value was found to be 1.4 kcal/mol, the denaturant m value was 1.13 kcal/mol/M and the unfolding free energy amounted to 5.5 kcal/mol.

In the case of MKKAVINGEQIRSISDLHQTLKKELALPEYYGENLDALWDCLTGWVEYPLVLEWRQFEQSLQLTENGAESVLQVFREAKAEGCDITIILS [K61L], the “ddG of mutation (higher = less stable)” value was -1 kcal/mol, the denaturant m value worked out at 1.3 kcal/mol/M and the unfolding free energy worked out at 5.8 kcal/mol. Besides, for the setting “KCl 0.5 M”, the “ddG of mutation (higher = less stable)” value was -0.4 kcal/mol, the denaturant m value came out at 1.17 kcal/mol/M and the unfolding free energy was 6.2 kcal/mol. Further, under “KCl 1.0 M”, the “ddG of mutation (higher = less stable)” value was -0.4 kcal/mol, the denaturant m value came out at 1.16 kcal/mol/M and the unfolding free energy amounted to 7.3 kcal/mol.

For MKKAVINGEQIRSISDLHQTLKKELALPEYYGENLDALWDCLTGWVEYPLVLEWRQFEQSKQLTENGAESVLQVFREAAAEGCDITIILS [K79A], where the note is “KCl 0.5 M”, the “ddG of mutation (higher = less stable)” value was -0.2 kcal/mol, the denaturant m value is 1.18 kcal/mol/M and the unfolding free energy was 6 kcal/mol. Besides, where the note is “KCl 1 M”, the “ddG of mutation (higher = less stable)” value is -0.1 kcal/mol, the denaturant m value came out at 1.16 kcal/mol/M and the unfolding free energy is 7 kcal/mol.

Consider MKKAVINGEQIRSISDLHQTLKKELALPEYYGENLDALWDCLTGWVEYPLVLEWRQFEQSKQLTENGAESVLQVFREAQAEGCDITIILS [K79Q], for which the “ddG of mutation (higher = less stable)” value was -0.4 kcal/mol, the denaturant m value amounted to 1.14 kcal/mol/M and the unfolding free energy was 5.2 kcal/mol. For the same variant, for the setting “KCl 0.5 M”, the “ddG of mutation (higher = less stable)” value was -0.3 kcal/mol, the denaturant m value was found to be 1.14 kcal/mol/M and the unfolding free energy was 6.1 kcal/mol. Further, where the note is “KCl 1 M”, the “ddG of mutation (higher = less stable)” value is -0.3 kcal/mol, the denaturant m value was determined as 1.14 kcal/mol/M and the unfolding free energy came to 7.2 kcal/mol.

Consider MKKAVINGEQIRSISDLHQTLAKELALPEYYGENLDALWDCLTGWVEYPLVLEWRQFEQSKQLTENGAESVLQVFREAKAEGCDITIILS [K22A], for which the “ddG of mutation (higher = less stable)” value worked out at 1.4 kcal/mol, the denaturant m value was determined as 1.02 kcal/mol/M and the unfolding free energy is 3.4 kcal/mol. Under “KCl 0.5 M”, the “ddG of mutation (higher = less stable)” value was 0.8 kcal/mol, the denaturant m value was 1.1 kcal/mol/M and the unfolding free energy came to 5 kcal/mol. Under “KCl 1 M”, the “ddG of mutation (higher = less stable)” value is 0.8 kcal/mol, the denaturant m value was 1.11 kcal/mol/M and the unfolding free energy is 6.1 kcal/mol.

MKKAVINGEQIRSISDLHQTLQKELALPEYYGENLDALWDCLTGWVEYPLVLEWRQFEQSKQLTENGAESVLQVFREAKAEGCDITIILS [K22Q]: the “ddG of mutation (higher = less stable)” value is 0.7 kcal/mol, the denaturant m value was 1.32 kcal/mol/M and the unfolding free energy came to 4.1 kcal/mol. For the setting “KCl 0.5 M”, the “ddG of mutation (higher = less stable)” value worked out at 1.2 kcal/mol, the denaturant m value was found to be 1.18 kcal/mol/M and the unfolding free energy turned out to be 4.6 kcal/mol. Also, for the setting “KCl 1 M”, the “ddG of mutation (higher = less stable)” value was 1.2 kcal/mol, the denaturant m value is 1.12 kcal/mol/M and the unfolding free energy came out at 5.7 kcal/mol.

MKKAVINGEQIRSISDLHQTLKQELALPEYYGENLDALWDCLTGWVEYPLVLEWRQFEQSKQLTENGAESVLQVFREAKAEGCDITIILS [K23Q]: the “ddG of mutation (higher = less stable)” value stood at 0.5 kcal/mol, the denaturant m value stood at 1.22 kcal/mol/M and the unfolding free energy was determined as 4.3 kcal/mol. Besides, under “KCl 0.5 M”, the “ddG of mutation (higher = less stable)” value is 1.1 kcal/mol, the denaturant m value amounted to 1.12 kcal/mol/M and the unfolding free energy turned out to be 4.7 kcal/mol. Under “KCl 1.0 M”, the “ddG of mutation (higher = less stable)” value was determined as 1.1 kcal/mol, the denaturant m value is 1.14 kcal/mol/M and the unfolding free energy is 5.8 kcal/mol.
